From paper PMC3135172

Biological target: GST-tagged BPTF PHD-bromodomain (human)
Assay: pull-down

fold enhancement of binding over mononucleosomes with only H3K4me3: 2 to 3 fold
Substance: H4K16ac and H3K4me3 modified mononucleosome (from UniProt P62805 1-103) (complex)
